Screen value data for 75 variants are collected here from article PMC12102759 (2025).

B1: SH3BP2 peptide 410-425 (SH3 domain-binding protein 2), 16-mer library wild type / TNKS ANK (TNKS 12 ANK repeats, residues 174-649) (parent complex)
chain 1: LPHLQRSPPDGQSFRS
chain 2: TGVPAVSGALRELLEACRNGDVSRVKRLVDAANVNAKDMAGRKSSPLHFAAGFGRKDVVEHLLQMGANVHARDDGGLIPLHNACSFGHAEVVSLLLCQGADPNARDNWNYTPLHEAAIKGKIDVCIVLLQHGADPNIRNTDGKSALDLADPSAKAVLTGEYKKDELLEAARSGNEEKLMALLTPLNVNCHASDGRKSTPLHLAAGYNRVRIVQLLLQHGADVHAKDKGGLVPLHNACSYGHYEVTELLLKHGACVNAMDLWQFTPLHEAASKNRVEVCSLLLSHGADPTLVNCHGKSAVDMAPTPELRERLTYEFKGHSLLQAAREADLAKVKKTLALEIINFKQPQSHETALHCAVASLHPKRKQVTELLLRKGANVNEKNKDFMTPLHVAAERAHNDVMEVLHKHGAKMNALDTLGQTALHRAALAGHLQTCRLLLSYGSDPSIISLQGFTAAQMGNEAVQQILSESTPIRTSD
B2: ATXN2 peptide 913-928 (Ataxin-2), 16-mer library wild type / PABPC1 PABC (PABPC1 PABC domain, residues 544-623) (parent complex)
chain 1: TLNPNAKEFNPRSFSQ
chain 2: PLTASMLASAPPQEQKQMLGERLFPLIQAMHPTLAGKITGMLLEIDNSELLHMLESPESLRSKVDEAVAVLQAHQAKEAA

The first assay covers variants of B1. As to the kind of experiment: proteomic peptide phage display deep mutational scan (ProP-PD DMS): M13 P8 16-mer library selected against immobilised GST-tagged bait for four days (rounds), NGS of the eluted pools per day and pseudo-replica; bait immobilised on MaxiSorp plates (10 µg), library pre-cleared on GST, 2 h binding at 4 °C, five washes; one round per day, days 1-4; value from days 2 and 3.
Regarding chain 1 L4N, the screen value was 0.000501 average fractional NGS count over selection days 2 and 3 (reads of this peptide / all reads for the bait, averaged over …. Still for that read-out and setting: next, chain 1 L4I: 0.00171 average fractional NGS count over selection days 2 and 3 (reads of this peptide / all reads for the bait, averaged over …; chain 1 L4H: 0.000978 average fractional NGS count over selection days 2 and 3 (reads of this peptide / all reads for the bait, averaged over …; chain 1 L4Y: 0.000355 average fractional NGS count over selection days 2 and 3 (reads of this peptide / all reads for the bait, averaged over …. As to chain 1 L4F, the screen value was 0.00253 average fractional NGS count over selection days 2 and 3 (reads of this peptide / all reads for the bait, averaged over …. Same read-out and setting: in the case of chain 1 R15Q it was 0.000422 average fractional NGS count over selection days 2 and 3 (reads of this peptide / all reads for the bait, averaged over ….

With chain 1 R15D, the screen value is 0.000883 average fractional NGS count over selection days 2 and 3 (reads of this peptide / all reads for the bait, averaged over …. Turning to chain 1 R15I, the screen value is 0.00013 average fractional NGS count over selection days 2 and 3 (reads of this peptide / all reads for the bait, averaged over …. Same read-out and setting: next, chain 1 R15F: 0.000621 average fractional NGS count over selection days 2 and 3 (reads of this peptide / all reads for the bait, averaged over …. The same measure, in the same setting: next, chain 1 R15S: 0.00343 average fractional NGS count over selection days 2 and 3 (reads of this peptide / all reads for the bait, averaged over …; chain 1 R15W: 0.000302 average fractional NGS count over selection days 2 and 3 (reads of this peptide / all reads for the bait, averaged over …; chain 1 R15L: 0.000467 average fractional NGS count over selection days 2 and 3 (reads of this peptide / all reads for the bait, averaged over …. Regarding chain 1 R15H, the screen value was 0.00172 average fractional NGS count over selection days 2 and 3 (reads of this peptide / all reads for the bait, averaged over …. On the same count and under the same terms, next, chain 1 R15A: 0.000604 average fractional NGS count over selection days 2 and 3 (reads of this peptide / all reads for the bait, averaged over ….

Turning to chain 1 R15P, the screen value was 0.00212 average fractional NGS count over selection days 2 and 3 (reads of this peptide / all reads for the bait, averaged over ….

For the variant chain 1 R15T, the screen value was 0.00759 average fractional NGS count over selection days 2 and 3 (reads of this peptide / all reads for the bait, averaged over …. On the same count and under the same terms, in the case of chain 1 R15G it was 0.00618 average fractional NGS count over selection days 2 and 3 (reads of this peptide / all reads for the bait, averaged over …; in that of chain 1 R15E, 0.0203 average fractional NGS count over selection days 2 and 3 (reads of this peptide / all reads for the bait, averaged over …. Consider chain 1 S7M, for which the screen value is 0.00193 average fractional NGS count over selection days 2 and 3 (reads of this peptide / all reads for the bait, averaged over …. Same read-out and setting: in the case of chain 1 S7N it was 0.00621 average fractional NGS count over selection days 2 and 3 (reads of this peptide / all reads for the bait, averaged over …. The same measure, in the same setting: in the case of chain 1 S7F it was 0.00476 average fractional NGS count over selection days 2 and 3 (reads of this peptide / all reads for the bait, averaged over …; in that of chain 1 S7V, 0.00627 average fractional NGS count over selection days 2 and 3 (reads of this peptide / all reads for the bait, averaged over …. Regarding chain 1 S7Y, the screen value is 0.00213 average fractional NGS count over selection days 2 and 3 (reads of this peptide / all reads for the bait, averaged over …. Regarding chain 1 S7H, the screen value was 0.000827 average fractional NGS count over selection days 2 and 3 (reads of this peptide / all reads for the bait, averaged over ….

chain 1 S7Q: the screen value is 0.00222 average fractional NGS count over selection days 2 and 3 (reads of this peptide / all reads for the bait, averaged over ….

On to chain 1 P9A, for which the screen value is 0.00156 average fractional NGS count over selection days 2 and 3 (reads of this peptide / all reads for the bait, averaged over …. Still for that read-out and setting: in the case of chain 1 P9S it was 0.000178 average fractional NGS count over selection days 2 and 3 (reads of this peptide / all reads for the bait, averaged over …; in that of chain 1 D10P, 0.00059 average fractional NGS count over selection days 2 and 3 (reads of this peptide / all reads for the bait, averaged over …. On the same count and under the same terms, next, chain 1 D10V: 0.00049 average fractional NGS count over selection days 2 and 3 (reads of this peptide / all reads for the bait, averaged over …; chain 1 D10A: 0.000226 average fractional NGS count over selection days 2 and 3 (reads of this peptide / all reads for the bait, averaged over ….

In a further assay the parent is B2. The description is as above.
chain 1 L2Y: the screen value was 0.000336 average fractional NGS count over selection days 2 and 3 (reads of this peptide / all reads for the bait, averaged over ….

Turning to chain 1 L2F, the screen value was 0.000314 average fractional NGS count over selection days 2 and 3 (reads of this peptide / all reads for the bait, averaged over …. Same read-out and setting: next, chain 1 P11V: 0.00178 average fractional NGS count over selection days 2 and 3 (reads of this peptide / all reads for the bait, averaged over ….

In the case of chain 1 P11T, the screen value was 0.00444 average fractional NGS count over selection days 2 and 3 (reads of this peptide / all reads for the bait, averaged over …. Still for that read-out and setting: in the case of chain 1 F14E it was 0.000387 average fractional NGS count over selection days 2 and 3 (reads of this peptide / all reads for the bait, averaged over …; in that of chain 1 F14P, 0.00134 average fractional NGS count over selection days 2 and 3 (reads of this peptide / all reads for the bait, averaged over …; in that of chain 1 K7W, 0.00309 average fractional NGS count over selection days 2 and 3 (reads of this peptide / all reads for the bait, averaged over ….

For chain 1 K7Y, the screen value was 0.0438 average fractional NGS count over selection days 2 and 3 (reads of this peptide / all reads for the bait, averaged over …. Same read-out and setting: next, chain 1 K7G: 0.00102 average fractional NGS count over selection days 2 and 3 (reads of this peptide / all reads for the bait, averaged over ….

Take chain 1 S15R: the screen value was 0.000394 average fractional NGS count over selection days 2 and 3 (reads of this peptide / all reads for the bait, averaged over …. Same read-out and setting: in the case of chain 1 S15Q it was 0.000598 average fractional NGS count over selection days 2 and 3 (reads of this peptide / all reads for the bait, averaged over …; in that of chain 1 S15A, 0.000937 average fractional NGS count over selection days 2 and 3 (reads of this peptide / all reads for the bait, averaged over …. Still for that read-out and setting: next, chain 1 S15D: 0.000508 average fractional NGS count over selection days 2 and 3 (reads of this peptide / all reads for the bait, averaged over …; chain 1 S13G: 0.00314 average fractional NGS count over selection days 2 and 3 (reads of this peptide / all reads for the bait, averaged over …; chain 1 S13N: 0.00133 average fractional NGS count over selection days 2 and 3 (reads of this peptide / all reads for the bait, averaged over …. On to chain 1 S13D, for which the screen value was 0.00111 average fractional NGS count over selection days 2 and 3 (reads of this peptide / all reads for the bait, averaged over …. Still for that read-out and setting: in the case of chain 1 S13Q it was 0.000347 average fractional NGS count over selection days 2 and 3 (reads of this peptide / all reads for the bait, averaged over …. Still for that read-out and setting: in the case of chain 1 N10S it was 0.000422 average fractional NGS count over selection days 2 and 3 (reads of this peptide / all reads for the bait, averaged over …; in that of chain 1 N10T, 0.00052 average fractional NGS count over selection days 2 and 3 (reads of this peptide / all reads for the bait, averaged over …. For the variant chain 1 N10Q, the screen value was 0.00128 average fractional NGS count over selection days 2 and 3 (reads of this peptide / all reads for the bait, averaged over ….

For the variant chain 1 P4V, the screen value is 0.00399 average fractional NGS count over selection days 2 and 3 (reads of this peptide / all reads for the bait, averaged over ….

As for chain 1 P4H, the screen value was 0.000277 average fractional NGS count over selection days 2 and 3 (reads of this peptide / all reads for the bait, averaged over …. chain 1 N3D: the screen value was 0.00069 average fractional NGS count over selection days 2 and 3 (reads of this peptide / all reads for the bait, averaged over ….

In the case of chain 1 N3Q, the screen value is 0.00023 average fractional NGS count over selection days 2 and 3 (reads of this peptide / all reads for the bait, averaged over …. Same read-out and setting: in the case of chain 1 N5D it was 0.00049 average fractional NGS count over selection days 2 and 3 (reads of this peptide / all reads for the bait, averaged over ….

In the case of chain 1 N5A, the screen value was 0.00056 average fractional NGS count over selection days 2 and 3 (reads of this peptide / all reads for the bait, averaged over …. On the same count and under the same terms, in the case of chain 1 A6S it was 0.000246 average fractional NGS count over selection days 2 and 3 (reads of this peptide / all reads for the bait, averaged over …; in that of chain 1 E8M, 0.00043 average fractional NGS count over selection days 2 and 3 (reads of this peptide / all reads for the bait, averaged over …; in that of chain 1 E8H, 0.00041 average fractional NGS count over selection days 2 and 3 (reads of this peptide / all reads for the bait, averaged over …. The same measure, in the same setting: next, chain 1 E8T: 0.00103 average fractional NGS count over selection days 2 and 3 (reads of this peptide / all reads for the bait, averaged over …; chain 1 E8S: 0.00107 average fractional NGS count over selection days 2 and 3 (reads of this peptide / all reads for the bait, averaged over …; chain 1 E8Q: 0.000543 average fractional NGS count over selection days 2 and 3 (reads of this peptide / all reads for the bait, averaged over …. For the variant chain 1 E8Y, the screen value was 0.000547 average fractional NGS count over selection days 2 and 3 (reads of this peptide / all reads for the bait, averaged over …. Same read-out and setting: in the case of chain 1 E8V it was 0.00108 average fractional NGS count over selection days 2 and 3 (reads of this peptide / all reads for the bait, averaged over …. Same read-out and setting: in the case of chain 1 R12T it was 0.00189 average fractional NGS count over selection days 2 and 3 (reads of this peptide / all reads for the bait, averaged over …; in that of chain 1 R12V, 0.00419 average fractional NGS count over selection days 2 and 3 (reads of this peptide / all reads for the bait, averaged over …; in that of chain 1 R12E, 0.000493 average fractional NGS count over selection days 2 and 3 (reads of this peptide / all reads for the bait, averaged over ….

In the case of chain 1 R12G, the screen value is 0.000653 average fractional NGS count over selection days 2 and 3 (reads of this peptide / all reads for the bait, averaged over …. On the same count and under the same terms, next, chain 1 R12F: 0.000951 average fractional NGS count over selection days 2 and 3 (reads of this peptide / all reads for the bait, averaged over …; chain 1 R12D: 0.00156 average fractional NGS count over selection days 2 and 3 (reads of this peptide / all reads for the bait, averaged over …; chain 1 R12I: 0.00122 average fractional NGS count over selection days 2 and 3 (reads of this peptide / all reads for the bait, averaged over ….

On to chain 1 T1I, for which the screen value was 0.000134 average fractional NGS count over selection days 2 and 3 (reads of this peptide / all reads for the bait, averaged over …. Same read-out and setting: in the case of chain 1 T1D it was 0.00327 average fractional NGS count over selection days 2 and 3 (reads of this peptide / all reads for the bait, averaged over …; in that of chain 1 T1N, 0.000793 average fractional NGS count over selection days 2 and 3 (reads of this peptide / all reads for the bait, averaged over …; in that of chain 1 T1R, 0.00254 average fractional NGS count over selection days 2 and 3 (reads of this peptide / all reads for the bait, averaged over ….
